Source: IntAct's records for PubMed 10704439

B1: Spindle assembly checkpoint component MAD3 (Saccharomyces cerevisiae), P47074 (parent)
chain: MKAYAKKRISYMPSSPSQNVINFEEIETQKENILPLKEGRSAAALSKAIHQPLVEINQVKSSFEQRLIDELPALSDPITLYLEYIKWLNNAYPQGGNSKQSGMLTLLERCLSHLKDLERYRNDVRFLKIWFWYIELFTRNSFMESRDIFMYMLRNGIGSELASFYEEFTNLLIQKEKFQYAVKILQLGIKNKARPNKVLEDRLNHLLRELGENNIQLGNEISMDSLESTVLGKTRSEFVNRLELANQNGTSSDVNLTKNNVFVDGEESDVELFETPNRGVYRDGWENFDLKAERNKENNLRISLLEANTNLGELKQHEMLSQKKRPYDEKLPIFRDSIGRSDPVYQMINTKDQKPEKIDCNFKLIYCEDEESKGGRLEFSLEEVLAISRNVYKRVRTNRKHPREANLGQEESANQKEAEAQSKRPKISRKALVSKSLTPSNQGRMFSGEEYINCPMTPKGRSTETSDIISAVKPRQLTPILEMRESNSFSQSKNSEIISDDDKSSSSFISYPPQR
partner: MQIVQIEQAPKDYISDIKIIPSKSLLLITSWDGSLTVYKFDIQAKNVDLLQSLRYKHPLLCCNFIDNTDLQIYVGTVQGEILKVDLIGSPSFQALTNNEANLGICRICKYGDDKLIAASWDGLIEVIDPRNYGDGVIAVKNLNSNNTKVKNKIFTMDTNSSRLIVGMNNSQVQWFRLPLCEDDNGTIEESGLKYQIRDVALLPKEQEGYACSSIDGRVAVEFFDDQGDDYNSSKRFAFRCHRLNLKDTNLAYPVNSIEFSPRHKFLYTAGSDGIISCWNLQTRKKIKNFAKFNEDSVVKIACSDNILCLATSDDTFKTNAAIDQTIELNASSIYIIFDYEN

Variants of: B1
Conditions: with bub3_yeast BUB3, P26449

effect of a mutation on the interaction	Variant
decreasing interaction	MKAYAKKRISYMPSSPSQNVINFEEIETQKENILPLKEGRSAAALSKAIHQPLVEINQVKSSFEQRLIDELPALSDPITLYLEYIKWLNNAYPQGGNSKQSGMLTLLERCLSHLKDLERYRNDVRFLKIWFWYIELFTRNSFMESRDIFMYMLRNGIGSELASFYEEFTNLLIQKEKFQYAVKILQLGIKNKARPNKVLEDRLNHLLRELGENNIQLGNEISMDSLESTVLGKTRSEFVNRLELANQNGTSSDVNLTKNNVFVDGEESDVELFETPNRGVYRDGWENFDLKAERNKENNLRISLLEANTNLGELKQHEMLSQKKRPYDEKLPIFRDSIGRSDPVYQMINTKDQKPEKIDCNFKLIYCEDEESKGGRLEFSLKEVLAISRNVYKRVRTNRKHPREANLGQEESANQKEAEAQSKRPKISRKALVSKSLTPSNQGRMFSGEEYINCPMTPKGRSTETSDIISAVKPRQLTPILEMRESNSFSQSKNSEIISDDDKSSSSFISYPPQR [E382K]
